# Assay results taken from article PMC8777244.
# How the values were obtained:
# [1] = molecular target: MBP-fused human Nox5β dehydrogenase domain residues 665-719 (human) (UniProt Q96PH1); assay: ITC
# [2] = molecular target: MBP-fused human Nox5β dehydrogenase domain residues 605-719 (human) (UniProt Q96PH1); assay: ITC
# [3] = molecular target: human Nox5β CaM-binding domain (CMBD) peptide, residues 671-689 (human); assay: ITC
# [4] = molecular target: MBP-fused human Nox5β dehydrogenase domain residues 528-719 (human) (UniProt Q96PH1); assay: ITC
# [5] = molecular target: MBP-fused human Nox5β dehydrogenase domain residues 584-719 (human) (UniProt Q96PH1); assay: ITC
# [6] = molecular target: human Nox5β CaM-binding domain (CMBD) peptide, residues 671-689 (human); assay: fluorescence polarisation
# [7] = molecular target: human Nox5β CaM-binding domain (CMBD) peptide, residues 671-689 (human); assay: other fluorescence titration
# [8] = molecular target: N-terminal Dansyl-labeled human Nox5β CMBD peptide (human); assay: other fluorescence titration
# Sequence of MBP-fused human Nox5β dehydrogenase domain residues 605-719 (human) (Q96PH1 651-765): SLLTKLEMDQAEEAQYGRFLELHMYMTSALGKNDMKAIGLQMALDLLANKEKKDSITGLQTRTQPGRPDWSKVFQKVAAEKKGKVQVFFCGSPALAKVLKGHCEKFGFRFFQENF
# Sequence of MBP-fused human Nox5β dehydrogenase domain residues 528-719 (human) (Q96PH1 574-765): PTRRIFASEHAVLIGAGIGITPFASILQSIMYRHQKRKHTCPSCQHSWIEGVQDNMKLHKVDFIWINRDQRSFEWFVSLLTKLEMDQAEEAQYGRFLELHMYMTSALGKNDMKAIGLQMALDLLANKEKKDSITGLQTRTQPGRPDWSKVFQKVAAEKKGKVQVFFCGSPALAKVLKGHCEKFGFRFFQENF
# Sequence of MBP-fused human Nox5β dehydrogenase domain residues 584-719 (human) (Q96PH1 630-765): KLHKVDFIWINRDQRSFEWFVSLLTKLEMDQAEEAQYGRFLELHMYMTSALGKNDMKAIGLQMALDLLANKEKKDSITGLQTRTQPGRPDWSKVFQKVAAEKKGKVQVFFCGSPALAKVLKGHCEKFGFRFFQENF
# Sequence of MBP-fused human Nox5β dehydrogenase domain residues 665-719 (human) (Q96PH1 711-765): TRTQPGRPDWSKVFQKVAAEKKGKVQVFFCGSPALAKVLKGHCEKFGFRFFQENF
substance,measurement,setting,value
recombinant 6xHis-tagged calmodulin (from UniProt P0DP23 1-149) (natural protein),dH,[1],-8.21 kcal/mol
same,stoichiometry N ([peptide]/Protein]),[1],1.15
same,dH,[2],-14.8 kcal/mol
same,stoichiometry N ([peptide]/Protein]),[2],1.15
same,dH (per mole protein),[3],-7.85 kcal/mol
same,stoichiometry N,[3],0.521
same,stoichiometry N ([peptide]/Protein]),[3],1.79
same,dH,[4],-19 kcal/mol
same,stoichiometry N ([peptide]/Protein]),[4],1.18
same,dH,[5],-16.8 kcal/mol
same,stoichiometry N ([peptide]/Protein]),[5],1.04
same,stoichiometry N ([peptide]/Protein]),[6],1.91
same,stoichiometry N ([peptide]/Protein]),[7],2.1
same,stoichiometry N ([peptide]/Protein]),[8],2.11
